The results in this text go back to article PMC8919193.

The term Kd denotes the concentration at which binding is half-saturated. Read a low Kd as tighter binding.

Assay [1] concerns the target unmodified and H2BK120ub nucleosomes. The assay is described as follows: FRET or BRET.
In assay [2] the target is Alexa Fluor 488-labeled H2BK120ub nucleosome, H2A(L65C), H3K79Nle (UniProt P0CG47). The assay is described as follows: other fluorescence titration.
In assay [3] the target is unmodified nucleosome, H3K79Nle, Alexa Fluor 488 on H2A(L65C) (human) (UniProt P62807). The assay is described as follows: FRET or BRET. On the technique in general: BRET reads energy transfer from a luciferase to a nearby fluorophore.

“Atto647N-labeled DOT1Lcat(C45A, C75A, C179A, N324C) (from UniProt Q8TEK3 1-416) (domain or fragment)” showed a Kd in assay [1] of 32 to 36 nM.
Turning to “DOT1Lcat (human DOT1L residues 1–416) (from UniProt Q8TEK3 1-416) (domain or fragment)”, in assay [2], the Kd stood at 120 nM.
In assay [3], “DOT1Lcat(F326A, C45A, C75A, C179A, N324C), Atto647N-labeled (from UniProt Q8TEK3 1-416) (domain or fragment)” came in with a Kd of 38 nM.
